Reference: PMC8671415

Tests used:
[1] = target: RAGE peptide (Sino Biological), receptor for advanced glycation end products (UniProt Q15109); assay: SPR; RANK or RAGE (5 μg/ml in 10 mM sodium acetate, pH 5.5) immobilised on the sensor chip; AOPPs 350 to 1050 μg/ml injected, 1050 μg/ml RSA as vehicle; 25 °C, 30 μl/min; PlexArray HT A100
[2] = target: RANK peptide (Sino Biological), receptor activator of nuclear factor κ B (UniProt Q9Y6Q6); assay: as above
Chain of UniProt Q9Y6Q6 (Q9Y6Q6 30-212): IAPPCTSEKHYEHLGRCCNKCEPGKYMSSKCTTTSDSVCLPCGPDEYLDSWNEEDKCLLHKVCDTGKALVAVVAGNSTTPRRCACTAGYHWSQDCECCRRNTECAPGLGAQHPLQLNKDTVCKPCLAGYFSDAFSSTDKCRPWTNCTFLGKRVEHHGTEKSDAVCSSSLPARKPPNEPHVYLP

Chain of UniProt Q15109 (Q15109 23-342): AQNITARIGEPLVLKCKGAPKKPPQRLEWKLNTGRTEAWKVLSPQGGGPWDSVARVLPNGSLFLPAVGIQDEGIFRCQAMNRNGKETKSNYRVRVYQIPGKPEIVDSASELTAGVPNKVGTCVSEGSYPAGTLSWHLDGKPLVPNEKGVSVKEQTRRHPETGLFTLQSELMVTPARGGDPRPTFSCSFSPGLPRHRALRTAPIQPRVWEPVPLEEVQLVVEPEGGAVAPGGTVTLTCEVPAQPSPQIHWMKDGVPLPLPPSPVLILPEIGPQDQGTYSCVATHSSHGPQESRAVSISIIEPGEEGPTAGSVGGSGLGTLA

Advanced oxidation protein products (AOPPs), prepared from rat serum albumin with hypochlorous acid (from UniProt P02770 25-608)
Kd [1]: 1.34 µM | Kd [2]: 3.02 µM
